Reference: paper PMC6098011 (2018)
Primed or numbered codes have the meaning given here. No end group written: not given here. FITC′ = fluorescein isothiocyanate label

B1: FITC-labeled N-degron peptide with tryptophan at the primary position (peptide)
chain: WEEEDK
modifications: also: FITC-labeled (site not given here)
B2: MBP-fused PB1-ZZ of p62 (residues 1-181) wild type (domain or fragment)
chain: not shown
B3: R-BiP peptide (REEEDK–FITC) (peptide)
peptide: REEEDK-{FITC′}
B4: FITC-labeled N-degron peptide with tyrosine at the primary position (peptide)
chain: YEEEDK
modifications: also: FITC-labeled (site not given here)
B5: FITC-labeled N-degron peptide with lysine at the primary position (peptide)
chain: KEEEDK
modifications: also: FITC-labeled, site not given here

What was measured:
[1] = molecular target: B2; experiment: FP; pH 8.0
FEEED = molecular target: T1, FEEED (Homo sapiens, not fully specified); experiment: FP; pH 8.0
T1 chain: H-FEEED

[2] = molecular target: Flag-ZZ (ZZ-domain of p62 with the flag-tag) (human); experiment: FP; pH 6.0
Sequence of Flag-ZZ (ZZ-domain of p62 with the flag-tag) (human) (chain, as listed by the source): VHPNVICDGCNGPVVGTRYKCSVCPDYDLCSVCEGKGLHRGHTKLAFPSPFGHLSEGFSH

Binder	Kd [1] [µM]	further results
B1	82	
B2		Kd (FEEED): 169 µM
B3		Kd [2]: > 400 µM
B4	68	
B5	113	
